Assay results: paper PMC8176890
Where two headings read alike, the source gives them in different places.

Key:
[1] = molecular target: wild-type heterotrimeric human Gαi1β1γ1 (human) (UniProt P63096); test: MST
[2] = molecular target: wild-type heterotrimeric human Gαi1β1γ1 (human) (UniProt P63096); test: MST; remark: listed apart in the source
[3] = molecular target: wild-type heterotrimeric human Gαi1β1γ1 (human) (UniProt P63096); test: MST; remark: listed apart in the source
[4] = molecular target: wild-type heterotrimeric human Gαi1β1γ1 (human) (UniProt P63096); test: MST; remark: listed apart in the source
[5] = molecular target: wild-type heterotrimeric human Gαi1β1γ1 (human) (UniProt P63096); test: BLI

wild-type heterotrimeric human Gαi1β1γ1 (human), sequence (P63096 whole entry, chain 1 of 3): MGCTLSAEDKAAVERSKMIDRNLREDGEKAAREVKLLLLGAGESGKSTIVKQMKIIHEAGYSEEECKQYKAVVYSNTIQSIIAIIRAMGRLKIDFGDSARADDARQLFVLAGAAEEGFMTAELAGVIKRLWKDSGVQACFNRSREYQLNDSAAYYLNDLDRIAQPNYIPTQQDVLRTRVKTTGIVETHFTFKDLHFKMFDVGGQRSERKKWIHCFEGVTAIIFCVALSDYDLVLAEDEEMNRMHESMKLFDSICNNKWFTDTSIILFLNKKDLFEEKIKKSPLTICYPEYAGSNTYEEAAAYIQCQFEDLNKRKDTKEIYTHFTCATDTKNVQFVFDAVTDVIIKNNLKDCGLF
wild-type heterotrimeric human Gαi1β1γ1 (human), sequence (P62873 2-340, chain 2 of 3, further chain): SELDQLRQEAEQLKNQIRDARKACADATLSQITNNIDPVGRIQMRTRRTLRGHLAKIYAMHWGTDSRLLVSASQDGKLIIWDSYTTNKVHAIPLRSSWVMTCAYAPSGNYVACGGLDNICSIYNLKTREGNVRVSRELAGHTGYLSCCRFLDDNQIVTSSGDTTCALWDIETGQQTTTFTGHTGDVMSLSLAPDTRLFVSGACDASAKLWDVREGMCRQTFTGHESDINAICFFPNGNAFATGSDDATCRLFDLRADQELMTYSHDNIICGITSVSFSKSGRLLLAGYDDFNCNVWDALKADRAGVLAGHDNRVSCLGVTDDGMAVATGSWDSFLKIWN
wild-type heterotrimeric human Gαi1β1γ1 (human), sequence (P63211 2-74, chain 3 of 3, further chain): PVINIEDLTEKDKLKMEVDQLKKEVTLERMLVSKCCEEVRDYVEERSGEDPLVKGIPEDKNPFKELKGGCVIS

Substance	Kd [1]	Kd [2]	Kd [3]	Kd [4]	KD of the high-affinity binding mode (2:1 model) [5]	KD of the lower-affinity binding mode (2:1 model) [5]
NTS-NTSR1 complex with the 5-alanine mutant TM86V-L167R E166A/K176A/K178A/S182A/R185A (from UniProt P20789 50-390)	347 nM	–	–	–	–	–
NTS-NTSR1 complex: neurotensin 8-13 bound to rat NTSR1 TM86V-L167R ΔIC3B (from UniProt P20789 50-390)	76 nM	236 nM	53 nM	1400 nM	5.8 nM	38 nM
